Measured values reported in patent publication US20180185520A1, “COLLAGEN IMAGING COMPOSTIONS” (Collagen Medical, LLC, priority 2015, published 2018).

Tests used:
[1] = Pharmacokinetics (rat), plasma gadolinium by ICP-MS; format: in vivo, Sprague Dawley rats; conditions: 1.3 umol/kg iv bolus in 80 mM sucrose, pH 7, plasma 2-90 minutes
Description: Compound ID No. 1 was formulated at pH 7 in 80 mM sucrose and administered to Sprague Dawley rats (n=2) at dose of 1.3 umol/kg using a bolus IV injection. Plasma was sampled at 2, 5, 15, 30, and 90 minutes post-injection and analyzed for gadolinium content using ICP-MS (FIG. 15).

myocardium = format: in vivo; conditions: Compound ID No. 1 7.5 μmol/kg (canine) vs EP-3600 12.3 μmol/kg (pig)
Description: To mimic severe ischemia, a canine model was used in which an inflatable variable vascular occluder was placed around the left anterior descending coronary artery (LAD) to allow occlusion and reperfusion. Imaging was performed on a 3T clinical scanner 4 days after implantation of the occluder. The conventional saturation recovery pulse sequence for stress perfusion imaging was compared with a segmented inversion method. The purpose of the segmented inversion method was to leverage the steady-state properties of Compound ID No. 1. This segmented inversion recovery pulse sequence provides greater T1 weighting, higher spatial resolution, and greater myocardial tissue contrast. Additionally, since imaging is delayed, the entire heart can be imaged. After baseline […] scanning, the balloon was inflated. […]
To assess relative perfusion, labeled microspheres were administered at 3 timepoints in the study. […] At autopsy under ultraviolet light, the hypo-perfused myocardium was differentiated from normal myocardium due to the lack of fluorescence in the hypo-perfused tissue. Based on the fluorescence, a sample of the ischemic territory and a sample of the remote myocardium were taken for ex vivo analysis. These tissue samples were weighed, digested in nitric acid, and analyzed for the elements La, Au, Lu (the three microsphere injections) and gadolinium (Compound ID No. 1) using ICP-MS. […]

Question: What does the source list for CC(C)C[C@H](NC(=O)[C@@H]1CSSC[C@H](NC(=O)[C@H](Cc2c[nH]cn2)NC(=O)[C@H](Cc2c[nH]c3ccccc23)NC(=O)[C@H](CCCCNC(=O)CC[C@H](C(=O)O)N2CCN(CC(=O)O)CCN(CC(=O)O)CCN(CC(=O)O)CC2)NC(=O)CNC(=O)CC[C@H](C(=O)O)N2CCN(CC(=O)O)CCN(CC(=O)O)CCN(CC(=O)O)CC2)C(=O)N[C@@H]([C@@H](C)O)C(=O)N[C@@H]([C@@H](C)O)C(=O)N[C@@H](CCCCNC(=O)CC[C@H](C(=O)O)N2CCN(CC(=O)O)CCN(CC(=O)O)CCN(CC(=O)O)CC2)C(=O)N[C@@H](Cc2ccccc2)C(=O)N2CCC[C@H]2C(=O)N[C@@H](Cc2c[nH]cn2)C(=O)N[C@@H](Cc2c[nH]cn2)C(=O)N[C@@H](Cc2ccc(O)cc2)C(=O)N1)C(=O)N[C@@H](Cc1ccc(O)cc1)C(=O)N[C@@H](Cc1ccc(-c2ccccc2)cc1)C(N)=O [Compound ID No. 1]?
Answer: pharmacokinetic profile [1]: rapid initial blood clearance; ΔCNR relative to EP-3600 (fold higher) (myocardium): 3 to 4 fold
